Like-named read-outs stand apart in the source and are kept apart here.
T1: POT-3 (Caenorhabditis elegans, UniProt G5EFG7 1-215)
T1 sequence: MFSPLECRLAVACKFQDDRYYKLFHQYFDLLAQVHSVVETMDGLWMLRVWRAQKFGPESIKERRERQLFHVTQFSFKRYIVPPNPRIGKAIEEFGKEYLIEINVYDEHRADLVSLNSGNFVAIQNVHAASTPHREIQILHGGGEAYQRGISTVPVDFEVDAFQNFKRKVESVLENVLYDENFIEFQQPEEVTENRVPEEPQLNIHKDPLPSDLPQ

T2: POT-2 (Caenorhabditis elegans, UniProt O45595 1-251)
T2 sequence: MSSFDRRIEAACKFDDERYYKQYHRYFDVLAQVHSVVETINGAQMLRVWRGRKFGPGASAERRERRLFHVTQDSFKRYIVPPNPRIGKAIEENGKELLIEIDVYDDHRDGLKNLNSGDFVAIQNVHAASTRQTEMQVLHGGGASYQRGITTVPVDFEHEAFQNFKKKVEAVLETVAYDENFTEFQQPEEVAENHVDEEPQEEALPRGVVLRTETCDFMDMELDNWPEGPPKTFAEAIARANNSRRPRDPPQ

B1: ss (TTAGGT)2 (ssDNA)
DNA: TTAGGTTTAGGT
B2: ss (TTAGAC)2 (ssDNA)
DNA: TTAGACTTAGAC
B3: ss (TTAGGC)2 (ssDNA)
DNA: TTAGGCTTAGGC

Tests used:
Assay in all cases: EMSA
[1] = molecular target: T1, POT-3
[2] = molecular target: T2, POT-2
[3] = molecular target: T1, POT-3; remark: listed apart in the source
[4] = molecular target: T2, POT-2; remark: listed apart in the source

Binder	binding result [1]	binding result [2]	binding result [3]	binding result [4]
B1	no binding	no binding	–	–
B2	no binding	no binding	–	–
B3	–	–	binds	binds

Reference: paper PMC12084805
